Results taken from patent US20130005646A1 (Novo Nordisk, published 2013).
Starred links: 1 amine or outer side, 2 acyl side, 3 side chain; linkers in the order of their positions; H or OH if unused. Positions of bridges follow the written chain, without caps; N, C: chain ends. *: point of attachment. C20 diacid = O=C(O)CCCCCCCCCCCCCCCCCCC(=O)*; γGlu = O=C(O)[C@H](CCC(=O)[*:2])N[*:1]

Experiments:
[1] = biological target: T1, human calcitonin (a) receptor (human, UniProt P30988 25-474); test: cell-based or functional assay
T1 sequence (looked up): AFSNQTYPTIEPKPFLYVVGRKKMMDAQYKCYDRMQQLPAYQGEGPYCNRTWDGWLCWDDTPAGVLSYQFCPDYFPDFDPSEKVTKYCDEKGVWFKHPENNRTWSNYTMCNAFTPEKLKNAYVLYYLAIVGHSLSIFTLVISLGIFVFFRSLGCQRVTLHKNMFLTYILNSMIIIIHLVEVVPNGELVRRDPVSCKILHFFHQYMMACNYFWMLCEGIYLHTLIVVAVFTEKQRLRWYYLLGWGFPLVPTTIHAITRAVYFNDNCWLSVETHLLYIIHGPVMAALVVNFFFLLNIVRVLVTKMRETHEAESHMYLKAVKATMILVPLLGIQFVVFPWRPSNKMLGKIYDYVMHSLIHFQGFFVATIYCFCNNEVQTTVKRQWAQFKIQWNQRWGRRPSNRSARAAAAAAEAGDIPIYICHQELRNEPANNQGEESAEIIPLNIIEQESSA

[2] = biological target: T2, human amylin 3(a) receptor (human calcitonin receptor + RAMP-3) (human, UniProt P30988 25-474; O60896 24-148); test: cell-based or functional assay
T2 sequence (looked up) 1: T1 sequence (looked up)
T2 sequence (looked up) 2: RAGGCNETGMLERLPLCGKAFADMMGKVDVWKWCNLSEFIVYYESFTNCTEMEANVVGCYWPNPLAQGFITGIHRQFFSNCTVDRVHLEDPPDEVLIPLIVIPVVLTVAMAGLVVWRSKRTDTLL

B1: N-alpha-[(S)-4-Carboxy-4-(19-carboxynonadecanoylamino)butyryl]-[Ser1,Glu14,His17,His35]-pramlintide (peptide)
peptide: {C20 diacid-γGlu}-SCNTATCATQRLAEFLHHSSNNFGPILPPTNVGSHTY-NH2
modifications: disulfide 2-7
SMILES: CC[C@H](C)[C@H](NC(=O)[C@@H]1CCCN1C(=O)CNC(=O)[C@H](Cc1ccccc1)NC(=O)[C@H](CC(N)=O)NC(=O)[C@H](CC(N)=O)NC(=O)[C@H](CO)NC(=O)[C@H](CO)NC(=O)[C@H](Cc1c[nH]cn1)NC(=O)[C@H](Cc1c[nH]cn1)NC(=O)[C@H](CC(C)C)NC(=O)[C@H](Cc1ccccc1)NC(=O)[C@H](CCC(=O)O)NC(=O)[C@H](C)NC(=O)[C@H](CC(C)C)NC(=O)[C@H](CCCNC(=N)N)NC(=O)[C@H](CCC(N)=O)NC(=O)[C@@H](NC(=O)[C@H](C)NC(=O)[C@@H]1CSSC[C@H](NC(=O)[C@H](CO)NC(=O)CC[C@H](NC(=O)CCCCCCCCCCCCCCCCCCC(=O)O)C(=O)O)C(=O)N[C@@H](CC(N)=O)C(=O)N[C@@H]([C@@H](C)O)C(=O)N[C@@H](C)C(=O)N[C@@H]([C@@H](C)O)C(=O)N1)[C@@H](C)O)C(=O)N[C@@H](CC(C)C)C(=O)N1CCC[C@H]1C(=O)N1CCC[C@H]1C(=O)N[C@H](C(=O)N[C@@H](CC(N)=O)C(=O)N[C@H](C(=O)NCC(=O)N[C@@H](CO)C(=O)N[C@@H](Cc1c[nH]cn1)C(=O)N[C@H](C(=O)N[C@@H](Cc1ccc(O)cc1)C(N)=O)[C@@H](C)O)C(C)C)[C@@H](C)O
CTa receptor human EC50 [1]: 0.171 nM
Amylin receptor human EC50 [2]: 0.225 nM

B2: N-alpha-[(S)-4-Carboxy-4-(19-carboxynonadecanoylamino)butyryl]-Gly-[Arg1,Glu14,Pro37]-pramlintide (peptide)
peptide: {C20 diacid-γGlu}-GRCNTATCATQRLAEFLVHSSNNFGPILPPTNVGSNTP-NH2
modifications: disulfide 3-8
SMILES: CC[C@H](C)[C@H](NC(=O)[C@@H]1CCCN1C(=O)CNC(=O)[C@H](Cc1ccccc1)NC(=O)[C@H](CC(N)=O)NC(=O)[C@H](CC(N)=O)NC(=O)[C@H](CO)NC(=O)[C@H](CO)NC(=O)[C@H](Cc1c[nH]cn1)NC(=O)[C@@H](NC(=O)[C@H](CC(C)C)NC(=O)[C@H](Cc1ccccc1)NC(=O)[C@H](CCC(=O)O)NC(=O)[C@H](C)NC(=O)[C@H](CC(C)C)NC(=O)[C@H](CCCNC(=N)N)NC(=O)[C@H](CCC(N)=O)NC(=O)[C@@H](NC(=O)[C@H](C)NC(=O)[C@@H]1CSSC[C@H](NC(=O)[C@H](CCCNC(=N)N)NC(=O)CNC(=O)CC[C@H](NC(=O)CCCCCCCCCCCCCCCCCCC(=O)O)C(=O)O)C(=O)N[C@@H](CC(N)=O)C(=O)N[C@@H]([C@@H](C)O)C(=O)N[C@@H](C)C(=O)N[C@@H]([C@@H](C)O)C(=O)N1)[C@@H](C)O)C(C)C)C(=O)N[C@@H](CC(C)C)C(=O)N1CCC[C@H]1C(=O)N1CCC[C@H]1C(=O)N[C@H](C(=O)N[C@@H](CC(N)=O)C(=O)N[C@H](C(=O)NCC(=O)N[C@@H](CO)C(=O)N[C@@H](CC(N)=O)C(=O)N[C@H](C(=O)N1CCC[C@H]1C(N)=O)[C@@H](C)O)C(C)C)[C@@H](C)O
CTa receptor human EC50 [1]: 0.0505 nM
Amylin receptor human EC50 [2]: 0.0495 nM

B3: N-alpha-[(S)-4-Carboxy-4-(19-carboxynonadecanoylamino)butyryl]-[des1,Glu14,His17,Pro37]-pramlintide (peptide)
peptide: {C20 diacid-γGlu}-CNTATCATQRLAEFLHHSSNNFGPILPPTNVGSNTP-NH2
modifications: disulfide 1-6
SMILES: CC[C@H](C)[C@H](NC(=O)[C@@H]1CCCN1C(=O)CNC(=O)[C@H](Cc1ccccc1)NC(=O)[C@H](CC(N)=O)NC(=O)[C@H](CC(N)=O)NC(=O)[C@H](CO)NC(=O)[C@H](CO)NC(=O)[C@H](Cc1c[nH]cn1)NC(=O)[C@H](Cc1c[nH]cn1)NC(=O)[C@H](CC(C)C)NC(=O)[C@H](Cc1ccccc1)NC(=O)[C@H](CCC(=O)O)NC(=O)[C@H](C)NC(=O)[C@H](CC(C)C)NC(=O)[C@H](CCCNC(=N)N)NC(=O)[C@H](CCC(N)=O)NC(=O)[C@@H](NC(=O)[C@H](C)NC(=O)[C@@H]1CSSC[C@H](NC(=O)CC[C@H](NC(=O)CCCCCCCCCCCCCCCCCCC(=O)O)C(=O)O)C(=O)N[C@@H](CC(N)=O)C(=O)N[C@@H]([C@@H](C)O)C(=O)N[C@@H](C)C(=O)N[C@@H]([C@@H](C)O)C(=O)N1)[C@@H](C)O)C(=O)N[C@@H](CC(C)C)C(=O)N1CCC[C@H]1C(=O)N1CCC[C@H]1C(=O)N[C@H](C(=O)N[C@@H](CC(N)=O)C(=O)N[C@H](C(=O)NCC(=O)N[C@@H](CO)C(=O)N[C@@H](CC(N)=O)C(=O)N[C@H](C(=O)N1CCC[C@H]1C(N)=O)[C@@H](C)O)C(C)C)[C@@H](C)O
CTa receptor human EC50 [1]: 0.106 nM
Amylin receptor human EC50 [2]: 0.0795 nM

B4: N-alpha-[(S)-4-Carboxy-4-(19-carboxynonadecanoylamino)butyryl]-[Gly1,Glu14,His17,His35]-pramlintide (peptide)
peptide: {C20 diacid-γGlu}-GCNTATCATQRLAEFLHHSSNNFGPILPPTNVGSHTY-NH2
modifications: disulfide 2-7
SMILES: CC[C@H](C)[C@H](NC(=O)[C@@H]1CCCN1C(=O)CNC(=O)[C@H](Cc1ccccc1)NC(=O)[C@H](CC(N)=O)NC(=O)[C@H](CC(N)=O)NC(=O)[C@H](CO)NC(=O)[C@H](CO)NC(=O)[C@H](Cc1c[nH]cn1)NC(=O)[C@H](Cc1c[nH]cn1)NC(=O)[C@H](CC(C)C)NC(=O)[C@H](Cc1ccccc1)NC(=O)[C@H](CCC(=O)O)NC(=O)[C@H](C)NC(=O)[C@H](CC(C)C)NC(=O)[C@H](CCCNC(=N)N)NC(=O)[C@H](CCC(N)=O)NC(=O)[C@@H](NC(=O)[C@H](C)NC(=O)[C@@H]1CSSC[C@H](NC(=O)CNC(=O)CC[C@H](NC(=O)CCCCCCCCCCCCCCCCCCC(=O)O)C(=O)O)C(=O)N[C@@H](CC(N)=O)C(=O)N[C@@H]([C@@H](C)O)C(=O)N[C@@H](C)C(=O)N[C@@H]([C@@H](C)O)C(=O)N1)[C@@H](C)O)C(=O)N[C@@H](CC(C)C)C(=O)N1CCC[C@H]1C(=O)N1CCC[C@H]1C(=O)N[C@H](C(=O)N[C@@H](CC(N)=O)C(=O)N[C@H](C(=O)NCC(=O)N[C@@H](CO)C(=O)N[C@@H](Cc1c[nH]cn1)C(=O)N[C@H](C(=O)N[C@@H](Cc1ccc(O)cc1)C(N)=O)[C@@H](C)O)C(C)C)[C@@H](C)O
CTa receptor human EC50 [1]: 0.161 nM
Amylin receptor human EC50 [2]: 0.208 nM

B5: N-alpha-[(S)-4-Carboxy-4-(19-carboxynonadecanoylamino)butyryl]-[Ser1,Glu14,His17,Pro37]-pramlintide (peptide)
peptide: {C20 diacid-γGlu}-SCNTATCATQRLAEFLHHSSNNFGPILPPTNVGSNTP-NH2
modifications: disulfide 2-7
SMILES: CC[C@H](C)[C@H](NC(=O)[C@@H]1CCCN1C(=O)CNC(=O)[C@H](Cc1ccccc1)NC(=O)[C@H](CC(N)=O)NC(=O)[C@H](CC(N)=O)NC(=O)[C@H](CO)NC(=O)[C@H](CO)NC(=O)[C@H](Cc1c[nH]cn1)NC(=O)[C@H](Cc1c[nH]cn1)NC(=O)[C@H](CC(C)C)NC(=O)[C@H](Cc1ccccc1)NC(=O)[C@H](CCC(=O)O)NC(=O)[C@H](C)NC(=O)[C@H](CC(C)C)NC(=O)[C@H](CCCNC(=N)N)NC(=O)[C@H](CCC(N)=O)NC(=O)[C@@H](NC(=O)[C@H](C)NC(=O)[C@@H]1CSSC[C@H](NC(=O)[C@H](CO)NC(=O)CC[C@H](NC(=O)CCCCCCCCCCCCCCCCCCC(=O)O)C(=O)O)C(=O)N[C@@H](CC(N)=O)C(=O)N[C@@H]([C@@H](C)O)C(=O)N[C@@H](C)C(=O)N[C@@H]([C@@H](C)O)C(=O)N1)[C@@H](C)O)C(=O)N[C@@H](CC(C)C)C(=O)N1CCC[C@H]1C(=O)N1CCC[C@H]1C(=O)N[C@H](C(=O)N[C@@H](CC(N)=O)C(=O)N[C@H](C(=O)NCC(=O)N[C@@H](CO)C(=O)N[C@@H](CC(N)=O)C(=O)N[C@H](C(=O)N1CCC[C@H]1C(N)=O)[C@@H](C)O)C(C)C)[C@@H](C)O
CTa receptor human EC50 [1]: 0.0705 nM
Amylin receptor human EC50 [2]: 0.0625 nM

B6: N-alpha-[(S)-4-Carboxy-4-(19-carboxynonadecanoylamino)butyryl]-Gly-[Arg1,Pro37]-pramlintide (peptide)
peptide: {C20 diacid-γGlu}-GRCNTATCATQRLANFLVHSSNNFGPILPPTNVGSNTP-NH2
modifications: disulfide 3-8
SMILES: CC[C@H](C)[C@H](NC(=O)[C@@H]1CCCN1C(=O)CNC(=O)[C@H](Cc1ccccc1)NC(=O)[C@H](CC(N)=O)NC(=O)[C@H](CC(N)=O)NC(=O)[C@H](CO)NC(=O)[C@H](CO)NC(=O)[C@H](Cc1c[nH]cn1)NC(=O)[C@@H](NC(=O)[C@H](CC(C)C)NC(=O)[C@H](Cc1ccccc1)NC(=O)[C@H](CC(N)=O)NC(=O)[C@H](C)NC(=O)[C@H](CC(C)C)NC(=O)[C@H](CCCNC(=N)N)NC(=O)[C@H](CCC(N)=O)NC(=O)[C@@H](NC(=O)[C@H](C)NC(=O)[C@@H]1CSSC[C@H](NC(=O)[C@H](CCCNC(=N)N)NC(=O)CNC(=O)CC[C@H](NC(=O)CCCCCCCCCCCCCCCCCCC(=O)O)C(=O)O)C(=O)N[C@@H](CC(N)=O)C(=O)N[C@@H]([C@@H](C)O)C(=O)N[C@@H](C)C(=O)N[C@@H]([C@@H](C)O)C(=O)N1)[C@@H](C)O)C(C)C)C(=O)N[C@@H](CC(C)C)C(=O)N1CCC[C@H]1C(=O)N1CCC[C@H]1C(=O)N[C@H](C(=O)N[C@@H](CC(N)=O)C(=O)N[C@H](C(=O)NCC(=O)N[C@@H](CO)C(=O)N[C@@H](CC(N)=O)C(=O)N[C@H](C(=O)N1CCC[C@H]1C(N)=O)[C@@H](C)O)C(C)C)[C@@H](C)O
CTa receptor human EC50 [1]: 0.075 nM
Amylin receptor human EC50 [2]: 0.0525 nM
